Laboratory results as given in the supplement of paper PMC9732359.
± gives the uncertainty stated by the source.

Assay: protein stability index of a GFP-peptide fusion (yeast GPS) (PSI 1-4); higher = more stable; sorted into four equal gates, so the index is relative within each strain
Method in brief: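 Tiled 17-residue yeast protein peptides were fused downstream of GFP in a plasmid that also expresses Cherry, and the pooled library was carried in yeast. Mid-log cultures in leucine-free medium were sorted into four equal gates by GFP/Cherry fluorescence ratio, and plasmids from each gate were PCR-amplified and Illumina-sequenced, with reads assigned to strains by barcodes. The protein stability index for each peptide was each gate's read frequency times its gate number, summed.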

Row | Sequence | protein stability index (doa10∆) | protein stability index (pdr5∆) | protein stability index (san1∆) | protein stability index (ubr1∆)
1 | QKLLKQLDSDANKLSKS [ISW2] | 3.03 ± 0.048 | 2.89 ± 0.053 | 2.92 ± 0.047 | 2.98 ± 0.04
2 | MINRLLLCALDRKDQDD [RPB2] | 1.86 ± 0.16 | 3.11 ± 0.1 | 2.11 ± 0.17 | 2.97 ± 0.067
3 | LRQKHEFLEDFDLVRNI [SMC2] | 3.1 ± 0.11 | 3.05 ± 0.098 | 3.14 ± 0.063 | 3.34 ± 0.099
4 | TSLTSIKWENAFVSVYS [PRP8] | 2.94 ± 0.07 | 2.62 ± 0.07 | 3 ± 0.08 | 2.67 ± 0.038
5 | TIVNDSNYDWLFQLLNA [RPN9] | 2.34 ± 0.074 | 2.58 ± 0.077 | 2.34 ± 0.078 | 2.61 ± 0.048
6 | HRASPADVSIKSILQEI [POP5] | 3.11 ± 0.26 | 3.27 ± 0.1 | 2.95 ± 0.12 | 
7 | QREAAAEYAQLLAKRLS [RPS6A] | 1.78 ± 0.059 | 1.6 ± 0.055 | 1.7 ± 0.11 | 2.11 ± 0.046
8 | SVSFKVFLLLQAYFSRL [BRR2] | 1.39 ± 0.044 | 1.47 ± 0.063 | 1.22 ± 0.088 | 1.42 ± 0.051
9 | SENHTESDAPPKSTAPI [YOR098C/NUP1] | 2.75 ± 0.058 | 2.24 ± 0.054 | 2.51 ± 0.058 | 2.47 ± 0.06
10 | EVNISSLDAREANFDLI [RPC40] | 3.4 ± 0.11 | 3.37 ± 0.095 | 3.17 ± 0.095 | 3.22 ± 0.068
11 | NQILMSVNFFVSLLKKN [RPL1A] | 1.84 ± 0.052 | 2.35 ± 0.046 | 2.15 ± 0.075 | 2.39 ± 0.04
12 | VLVASAKGLQTVVVEED [RPL31A] | 2.19 ± 0.1 | 2.49 ± 0.11 | 2.54 ± 0.087 | 2.25 ± 0.094
13 | NVSENQPWQMDTNNEAD [SNF12] | 3.11 ± 0.052 | 3.26 ± 0.064 | 3.17 ± 0.042 | 3.25 ± 0.04
14 | RIAVLHQKTKTLASLSI [YGL172W/NUP49] | 2.31 ± 0.081 | 2.25 ± 0.062 | 2.26 ± 0.07 | 2.75 ± 0.066
15 | SFSFGAPESMKSTASTA [YOR098C/NUP1] | 3.07 ± 0.069 | 3.13 ± 0.091 | 3.31 ± 0.059 | 3.12 ± 0.053
16 | CTNLTNRTLYELADLPK [GRR1] | 2.93 ± 0.058 | 3.05 ± 0.048 | 2.92 ± 0.036 | 3.1 ± 0.046
17 | HQQQQQQQQQQQQQQQQ [SNF5] | 2.78 ± 0.056 | 2.88 ± 0.049 | 2.88 ± 0.056 | 2.93 ± 0.055
18 | KSPSLTAQKYPIYTGDG [YMR153W/NUP53] | 2.33 ± 0.055 | 2.19 ± 0.051 | 2.08 ± 0.069 | 2.01 ± 0.036
19 | HPLHELIIQYPPNNARR [ISW2] | 3.06 ± 0.065 | 2.88 ± 0.056 | 2.73 ± 0.052 | 3 ± 0.047
20 | EKSGISKMSDESFAELM [RPC17] | 3.26 ± 0.14 |  | 3.27 ± 0.11 | 3.42 ± 0.2
21 | NITDYETHPDNSNKQAV [BRR2] | 2.81 ± 0.047 | 3 ± 0.045 | 2.73 ± 0.037 | 2.9 ± 0.034
22 | PIPVQGEIEIKPNEEEE [RPN13] | 2.45 ± 0.081 | 2.59 ± 0.067 | 2.58 ± 0.15 | 2.67 ± 0.1
23 | VRSEMGEPIHKIATRGV [FAS1] | 3.14 ± 0.29 | 3.14 ± 0.28 |  | 2.95 ± 0.089
24 | EVLNRVASRHPSESEHP [YDL116W/NUP84] | 2.94 ± 0.15 | 3.17 ± 0.11 | 2.99 ± 0.084 | 3.24 ± 0.075
25 | EIRRSLSLNLGDYGSAK [POP5] |  | 3.06 ± 0.09 | 3.05 ± 0.18 | 
26 | LVYQYKGAGLSMGTMIC [PRE2] | 2.06 ± 0.083 | 2.3 ± 0.097 | 2.18 ± 0.16 | 2.24 ± 0.11
